Results on 7 molecules are retold here after US7794719 (dated 2010).

Experiment [1] deals with Aβ1-42 fibers (human). Description: SPR. A general note: SPR reads the build-up and loss of mass on a sensor chip optically.
Experiment [2] concerns the target Aβ1-40 fibers (human). Description: SPR.
Experiment [3] has as its target Aβ1-40 fibers (human). Description: SPR. The source holds these as a separate data set.
Experiment [4] has as its target Aβ1-42 fibers (human). Description: SPR. The source holds these as a separate data set.
Experiment [5] has as its target Aβ1-42 fibers (human). Description: SPR, monovalent.
In experiment [6] the target is Aβ1-40 fibers (human). Description: SPR, bivalent.
Experiment [7] addresses Aβ1-42 fibers (human). Description: SPR, bivalent.
In experiment [8] the target is Aβ1-40 fibers (human). Description: SPR, monovalent.

Changes are numbered by the printed parent chain.

B1: MS-R 7.11.H1 x 7.2.L1 IgG1 (antibody, V domains shown)
VH: QLVESGGGLVQPGGSLRLSCAASGFTFSSYAMSWVRQAPGKGLEWVSGINAAGFRTYYADSVKGRFTISRDNSKNTLYLQMNSLRAEDTAVYYCARGKGNTHKPYGYVRYFDVWGQGTLVTVSS
VL: DIVLTQSPATLSLSPGERATLSCRASQYVDRTYLAWYQQKPGQAPRLLIYGASSRATGVPARFSGSGSGTDFTLTISSLEPEDFATYYCQQIYSFPHTFGQGTKVEIKR
On to B1, for which the Kd with Aβ1-42 fibers [1] stood at 0.67 nM; with Aβ1-40 fibers [2] it was 0.14 nM; with Aβ1-40 fibers [3] it was 0.66 nM; in the experiment with Aβ1-42 fibers [4] it was 0.15 nM.

B2: MS-R 7.11.H1 x 7.11.L1 IgG1 (antibody, V domains shown)
VH: B1 VH
VL: B1 VL with Y28R, V29I, D30L, T32I, I92V, F95P
As to B2, the Kd with Aβ1-42 fibers [1] came out at 0.7 nM; in the experiment with Aβ1-40 fibers [2], 0.11 nM; in the experiment with Aβ1-40 fibers [3], 0.7 nM; with Aβ1-42 fibers [4], 0.13 nM.

B3: MS-R 3.6.H5 x 3.6.L2 IgG1 (antibody, V domains shown)
VH: QLVESGGGLVQPGGSLRLSCAASGFTFSSYAMSWVRQAPGKGLEWVSAISESGKTKYYADSVKGRFTISRDNSKNTLYLQMNSLRAEDTAVYYCARLTHYARYYRYFDVWGQGTLVTVSS
VL: B1 VL with Y28F, V29L, D30S, T32Y, T86V, I92T, S94N, F95Y, H97P
In the case of B3, the Kd in the experiment with Aβ1-42 fibers [1] is 0.95 nM; with Aβ1-40 fibers [2], 0.2 nM; with Aβ1-40 fibers [3] it was 1.03 nM; in the experiment with Aβ1-42 fibers [4] it was 0.2 nM.

B4: MS-R 7.9.H2 IgG1 (antibody, V domains shown)
VH: B1 VH with G48A, A52D, F54N, T56K
VL: B1 VL with Y28S, D30S, R31S, T32S, Q90L, S94N, F95M, H97I
As to B4, the Kd in the experiment with Aβ1-42 fibers [1] stood at 0.38 nM; with Aβ1-40 fibers [2], 0.12 nM; with Aβ1-40 fibers [3] it was 0.42 nM; in the experiment with Aβ1-42 fibers [4], 0.11 nM.

B5: MS-R 7.4.H2 x 7.2.L1 IgG1 (antibody, V domains shown)
VH: B1 VH with G48A, A51Y, A52N, F54A, T56I
VL: B1 VL
As for B5, the Kd with Aβ1-42 fibers [1] worked out at 0.56 nM; with Aβ1-40 fibers [2], 0.12 nM; with Aβ1-40 fibers [3] it was 0.63 nM; with Aβ1-42 fibers [4], 0.12 nM.

B6: MS-R 3.6.H8 x 3.6.L2 IgG1 (antibody, V domains shown)
VH: B3 VH with S52Y, G53S, T55F
VL: B1 VL with Y28F, V29L, D30S, T32Y, T86V, I92T, S94N, F95Y, H97P
On to B6, for which the Kd amounted to 0.82 nM with Aβ1-42 fibers [5], 0.22 nM in the experiment with Aβ1-40 fibers [6], 0.22 nM in the experiment with Aβ1-42 fibers [7] and 0.95 nM with Aβ1-40 fibers [8].

B7: MS-R 7.9.H7 IgG1 (antibody, V domains shown)
VH: QVELVESGGGLVQPGGSLRLSCAASGFTFSSYAMSWVRQAPGKGLEWVSAINASGTRTYYADSVKGRFTISRDNSKNTLYLQMNSLRAEDTAVYYCARGKGNTHKPYGYVRYFDVWGQGTLVTVSS
VL: B1 VL with Y28S, D30S, R31S, T32S, Q90L, S94N, F95M, H97I
In the case of B7, the Kd in the experiment with Aβ1-42 fibers [1] stood at 0.7 nM; with Aβ1-40 fibers [2], 0.25 nM; with Aβ1-40 fibers [3], 0.69 nM; with Aβ1-42 fibers [4] it was 0.24 nM.
